Publication PMC12488921
“And” between values parts separate entries of the source, which are not always exact repeats. Equal entries are not always repeated.

Columns and labels:
Human DNAJB6b (human) [1] = molecular target: Human DNAJB6b (human) (UniProt O75190); test: mass photometry; JB6 equilibrated at different concentrations (1 to 100 μM), 20 mM NaP, 0.2 mM EDTA, pH 8.0, room temperature; samples above 200 nM diluted to 200 nM less than a minute before a 60 s measurement; also 5 μM JB6 with 0-1.25 M NaCl
Human DNAJB6b (human) [2] = molecular target: Human DNAJB6b (human) (UniProt O75190); test: mass photometry; dissociation kinetics: 34 μM non-labeled JB6 diluted to 50 nM at time zero, 22 and 37 °C; total micelle mass (N > 2) in 60 s of data collection against time

Human DNAJB6b, O75190-2 1-241 (natural protein; other documents disagree on this pair), sequence (O75190 other isoform, or with tags, fused parts or gaps): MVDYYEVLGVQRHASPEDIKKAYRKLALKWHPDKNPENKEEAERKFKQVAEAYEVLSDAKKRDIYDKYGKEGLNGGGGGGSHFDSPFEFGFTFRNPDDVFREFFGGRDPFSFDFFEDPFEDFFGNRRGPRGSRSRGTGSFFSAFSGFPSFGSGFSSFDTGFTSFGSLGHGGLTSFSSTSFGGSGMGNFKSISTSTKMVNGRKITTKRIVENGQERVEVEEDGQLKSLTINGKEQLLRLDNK

stoichiometry N (Human DNAJB6b (human) [1]): 20 and 40
time scale of micelle dissociation at 37 °C (Human DNAJB6b (human) [2]): 20 min
Substance: Human DNAJB6b, O75190-2 1-241 (natural protein; other documents disagree on this pair)
